Assay results as given in article doi:10.1101/2022.09.21.508836 (bioRxiv, 2022).

Target: FIP200 (full length) (human, UniProt Q8TDY2 1-1594)
Test: pull-down

Sequence of FIP200 (full length) (Q8TDY2 whole entry): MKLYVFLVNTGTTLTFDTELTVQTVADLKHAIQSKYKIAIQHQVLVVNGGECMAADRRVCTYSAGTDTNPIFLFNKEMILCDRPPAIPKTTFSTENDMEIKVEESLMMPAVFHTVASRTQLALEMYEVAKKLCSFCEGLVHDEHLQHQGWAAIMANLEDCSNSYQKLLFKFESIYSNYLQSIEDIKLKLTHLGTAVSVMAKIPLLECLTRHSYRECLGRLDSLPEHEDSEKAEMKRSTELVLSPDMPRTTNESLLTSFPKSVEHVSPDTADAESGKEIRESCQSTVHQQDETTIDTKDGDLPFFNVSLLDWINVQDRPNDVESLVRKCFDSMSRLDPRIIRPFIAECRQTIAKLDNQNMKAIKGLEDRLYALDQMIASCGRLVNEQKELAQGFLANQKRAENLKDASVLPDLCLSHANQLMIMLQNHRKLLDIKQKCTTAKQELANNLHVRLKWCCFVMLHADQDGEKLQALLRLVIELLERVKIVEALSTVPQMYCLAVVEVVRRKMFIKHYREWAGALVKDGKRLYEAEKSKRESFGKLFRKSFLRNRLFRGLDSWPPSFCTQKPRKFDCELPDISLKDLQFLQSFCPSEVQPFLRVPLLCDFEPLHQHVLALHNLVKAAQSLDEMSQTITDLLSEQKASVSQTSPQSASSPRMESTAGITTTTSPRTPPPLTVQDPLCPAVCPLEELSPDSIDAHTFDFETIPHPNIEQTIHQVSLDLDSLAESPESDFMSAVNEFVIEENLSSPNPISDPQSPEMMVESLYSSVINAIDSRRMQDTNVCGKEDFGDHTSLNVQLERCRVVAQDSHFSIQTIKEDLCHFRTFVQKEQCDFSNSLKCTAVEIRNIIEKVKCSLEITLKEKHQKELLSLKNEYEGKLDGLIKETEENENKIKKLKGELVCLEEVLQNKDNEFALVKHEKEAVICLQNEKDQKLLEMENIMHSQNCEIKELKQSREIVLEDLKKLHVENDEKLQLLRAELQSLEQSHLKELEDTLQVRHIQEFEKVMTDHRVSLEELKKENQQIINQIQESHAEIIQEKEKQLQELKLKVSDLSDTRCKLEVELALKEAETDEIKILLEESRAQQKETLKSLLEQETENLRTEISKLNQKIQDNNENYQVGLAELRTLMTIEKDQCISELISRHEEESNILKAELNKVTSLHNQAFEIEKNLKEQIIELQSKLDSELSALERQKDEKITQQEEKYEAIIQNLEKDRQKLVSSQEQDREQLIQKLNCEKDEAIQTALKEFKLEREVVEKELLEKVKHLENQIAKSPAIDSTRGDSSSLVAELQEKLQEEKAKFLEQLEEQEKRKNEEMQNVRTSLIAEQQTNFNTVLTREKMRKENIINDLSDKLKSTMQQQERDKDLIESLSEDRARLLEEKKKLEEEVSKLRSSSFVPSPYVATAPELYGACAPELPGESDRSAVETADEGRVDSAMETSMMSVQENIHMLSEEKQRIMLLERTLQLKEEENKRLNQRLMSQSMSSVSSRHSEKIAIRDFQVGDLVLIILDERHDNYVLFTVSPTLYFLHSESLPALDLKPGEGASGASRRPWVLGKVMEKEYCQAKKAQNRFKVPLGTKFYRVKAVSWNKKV

B1: ULK1 (full length) (enzyme)
chain: MEPGRGGTETVGKFEFSRKDLIGHGAFAVVFKGRHREKHDLEVAVKCINKKNLAKSQTLLGKEIKILKELKHENIVALYDFQEMANSVYLVMEYCNGGDLADYLHAMRTLSEDTIRLFLQQIAGAMRLLHSKGIIHRDLKPQNILLSNPAGRRANPNSIRVKIADFGFARYLQSNMMAATLCGSPMYMAPEVIMSQHYDGKADLWSIGTIVYQCLTGKAPFQASSPQDLRLFYEKNKTLVPTIPRETSAPLRQLLLALLQRNHKDRMDFDEFFHHPFLDASPSVRKSPPVPVPSYPSSGSGSSSSSSSTSHLASPPSLGEMQQLQKTLASPADTAGFLHSSRDSGGSKDSSCDTDDFVMVPAQFPGDLVAEAPSAKPPPDSLMCSGSSLVASAGLESHGRTPSPSPPCSSSPSPSGRAGPFSSSRCGASVPIPVPTQVQNYQRIERNLQSPTQFQTPRSSAIRRSGSTSPLGFARASPSPPAHAEHGGVLARKMSLGGGRPYTPSPQVGTIPERPGWSGTPSPQGAEMRGGRSPRPGSSAPEHSPRTSGLGCRLHSAPNLSDLHVVRPKLPKPPTDPLGAVFSPPQASPPQPSHGLQSCRNLRGSPKLPDFLQRNPLPPILGSPTKAVPSFDFPKTPSSQNLLALLARQGVVMTPPRNRTLPDLSEVGPFHGQPLGPGLRPGEDPKGPFGRSFSTSRLTDLLLKAAFGTQAPDPGSTESLQEKPMEIAPSAGFGGSLHPGARAGGTSSPSPVVFTVGSPPSGSTPPQGPRTRMFSAGPTGSASSSARHLVPGPCSEAPAPELPAPGHGCSFADPITANLEGAVTFEAPDLPEETLMEQEHTEILRGLRFTLLFVQHVLEIAALKGSASEAAGGPEYQLQESVVADQISLLSREWGFAEQLVLYLKVAELLSSGLQSAIDQIRAGKLCLSSTVKQVVRRLNELYKASVVSCQGLSLRLQRFFLDKQRLLDRIHSITAERLIFSHAVQMVQSAALDEMFQHREGCVPRYHKALLLLEGLQHMLSDQADIENVTKCKLCIERRLSALLTGICA
B1: binds.
